Measured values reported in patent US20150283263A1.

Biological target: CD25 (human) (UniProt P01589)
Assay: flow cytometry on Karpas299 cells (surface CD25); negative control antibody

CD25 (human), sequence (P01589 22-272): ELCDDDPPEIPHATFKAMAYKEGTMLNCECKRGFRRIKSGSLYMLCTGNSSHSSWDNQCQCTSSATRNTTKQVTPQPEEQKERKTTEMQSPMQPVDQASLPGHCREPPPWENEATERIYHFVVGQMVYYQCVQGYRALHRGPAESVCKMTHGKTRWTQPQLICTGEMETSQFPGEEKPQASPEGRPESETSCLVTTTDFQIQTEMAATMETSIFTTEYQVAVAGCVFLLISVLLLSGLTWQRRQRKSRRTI

For B12 anti-HIV gp120 antibody, the EC50 was 537 µg/mL.
